The assay addresses soluble Aβ1-42 (125I-labelled) (human) (UniProt P05067). Description: capture radioimmunoassay, 50,000 CPM 125I-Aβ1-42, antibody at 10 µg/ml.

As to “murine monoclonal antibody 10D5 (isotype IgG1)”, the percent of radioactive counts bound at 10 µg/ml came to 2%.

These data come from patent publication JP2012050437A.
